From patent US20170304405A1

Legend:
Experiment in all cases: cell-based or functional assay
[1] = target: GHRH receptor (GHRH-R) (human) (UniProt Q02643)
GPR101 (human) = GPR101 (human) (UniProt Q96P66)
[2] = target: somatostatin receptor 2 (SSTR2) (human) (UniProt P30874)
[3] = target: somatostatin receptors (multi-somatostatin receptor)

Sequence of UniProt Q02643 (Q02643 23-423): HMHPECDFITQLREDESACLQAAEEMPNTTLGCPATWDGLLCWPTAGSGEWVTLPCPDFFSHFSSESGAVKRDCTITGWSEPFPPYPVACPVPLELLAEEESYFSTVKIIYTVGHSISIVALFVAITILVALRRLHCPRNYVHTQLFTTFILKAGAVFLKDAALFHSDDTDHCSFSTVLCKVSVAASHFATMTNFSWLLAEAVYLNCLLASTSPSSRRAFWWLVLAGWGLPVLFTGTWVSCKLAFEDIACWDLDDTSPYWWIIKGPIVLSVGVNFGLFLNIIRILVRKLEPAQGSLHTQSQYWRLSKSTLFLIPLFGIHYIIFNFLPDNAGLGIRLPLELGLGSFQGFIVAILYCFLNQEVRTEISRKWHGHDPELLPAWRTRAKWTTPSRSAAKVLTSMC
Sequence of UniProt Q96P66 (Q96P66 whole entry): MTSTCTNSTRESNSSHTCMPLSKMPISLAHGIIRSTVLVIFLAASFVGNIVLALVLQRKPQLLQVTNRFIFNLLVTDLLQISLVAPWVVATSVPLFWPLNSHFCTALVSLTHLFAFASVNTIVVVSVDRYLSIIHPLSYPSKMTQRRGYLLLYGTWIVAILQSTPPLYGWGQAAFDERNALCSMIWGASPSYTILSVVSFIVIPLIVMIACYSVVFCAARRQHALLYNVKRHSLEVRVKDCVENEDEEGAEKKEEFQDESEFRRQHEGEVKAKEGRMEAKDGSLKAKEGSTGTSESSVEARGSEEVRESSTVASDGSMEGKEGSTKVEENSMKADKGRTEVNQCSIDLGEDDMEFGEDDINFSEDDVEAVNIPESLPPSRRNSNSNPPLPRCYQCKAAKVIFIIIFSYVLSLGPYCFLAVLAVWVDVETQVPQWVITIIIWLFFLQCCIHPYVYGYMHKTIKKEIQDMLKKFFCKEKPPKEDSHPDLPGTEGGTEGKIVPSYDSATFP
Sequence of UniProt P30874 (P30874 whole entry): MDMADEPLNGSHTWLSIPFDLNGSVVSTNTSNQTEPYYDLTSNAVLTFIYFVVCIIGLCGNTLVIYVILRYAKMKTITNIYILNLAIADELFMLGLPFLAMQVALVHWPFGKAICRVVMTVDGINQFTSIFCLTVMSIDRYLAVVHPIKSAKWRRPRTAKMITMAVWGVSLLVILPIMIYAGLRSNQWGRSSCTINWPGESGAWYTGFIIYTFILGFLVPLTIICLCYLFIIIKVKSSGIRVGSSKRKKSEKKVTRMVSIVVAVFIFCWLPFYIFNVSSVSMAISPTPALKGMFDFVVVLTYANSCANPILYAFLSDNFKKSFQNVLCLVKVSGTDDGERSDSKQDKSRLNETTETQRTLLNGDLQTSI

GH releasing hormone (GHRH) (from UniProt P01286 32-75) (ligand)
GH secretion by primary X-LAG pituitary tumour cells, % change vs control wells, GHRH at 10^-10 M [1]: 410% | Prolactin secretion by primary X-LAG pituitary tumour cells, % change vs control wells, GHRH at 10^-8 M [1]: 11%

GnRH1-5 (from UniProt P01148 24-28) (peptide)
GH secretion by primary X-LAG pituitary tumour cells, % change vs control, GnRH1-5 at 10^-10 M (GPR101 (human)): 15%

octreotide (peptide)
Prolactin secretion by primary X-LAG pituitary tumour cells, % change vs control, octreotide at 10^-9 M [2]: -26%

pasireotide (peptide)
GH secretion by primary X-LAG pituitary tumour cells, % change vs control, maximum inhibition at 10^-8 M [3]: -18%
